Where a chain is given by its changes, count along the chain named. Names and notes keep the numbering of the source.
Key:
[1] = test system: A549 lung carcinoma cells; assay: xenograft model of non-small cell lung cancer (A549) in nude mice; assay type: in vivo; conditions: FIG. 9
Procedure: Cells from a non-small cell lung cancer cell line (A549) were grown in nine T175 flasks in F12K media and 10% fetal calf serum until the cells were confluent. 4.5×10^6 cells ([…]) were injected into the right rear flank of 4-5 week old male homozygous (nu/nu) nude mice (Harlan, Madison Wis.). Tumors were allowed to grow to an average size of ≧75 mm^3 before treatments were initiated. Animals of each tumor type, with the properly-sized tumors, were divided into treatment groups, including one set of animals treated weekly with vehicle (phosphate buffered saline, PBS). The vehicle and the test agents were all administered by intraperitoneal injection. Each animal was weighed twice a week during treatment. The tumors were measured twice weekly using calipers. Tumor volume (mm^3) was determined by using the formula for an ellipsoid sphere:
[formula] The percent tumor growth inhibition was calculated using the formula:
[formula] […] The efficacy is similar to that of an approved cancer drug, cisplatin.

[2] = test system: DU145 human prostate cancer cells; assay: xenograft model of prostate cancer (DU145) in nude mice; assay type: in vivo
Procedure: Prostate cancer cells (DU145) were implanted into the right rear flank of 5-6 week old male homozygous (nu/nu) nude mice (Harlan). Tumors were allowed to grow to an average size of ≧75 mm^3 before treatments were initiated. Animals of each tumor type, with the properly-sized tumors, were divided into treatment groups. All the test compounds were diluted in PBS (drug vehicle), and one set of animals treated with vehicle (PBS) on the schedule with greatest frequency in the current study served as the negative control. All RNase treatments in the xenograft model are administered by intraperitoneal injection. Treatment with all agents is ongoing throughout the entire experiment (e.g., a 6 week long experiment with 1×wk dosing results in 6 total doses). Tumors were measured twice weekly using calipers. Tumor volume (mm^3) was determined by using the equation 4. The percent tumor growth inhibition was calculated using equation 5.

human RI = biological target: T1, human RI (Homo sapiens, UniProt P13489); assay: Kd^c | nM
T1 sequence (P13489 whole entry, looked up): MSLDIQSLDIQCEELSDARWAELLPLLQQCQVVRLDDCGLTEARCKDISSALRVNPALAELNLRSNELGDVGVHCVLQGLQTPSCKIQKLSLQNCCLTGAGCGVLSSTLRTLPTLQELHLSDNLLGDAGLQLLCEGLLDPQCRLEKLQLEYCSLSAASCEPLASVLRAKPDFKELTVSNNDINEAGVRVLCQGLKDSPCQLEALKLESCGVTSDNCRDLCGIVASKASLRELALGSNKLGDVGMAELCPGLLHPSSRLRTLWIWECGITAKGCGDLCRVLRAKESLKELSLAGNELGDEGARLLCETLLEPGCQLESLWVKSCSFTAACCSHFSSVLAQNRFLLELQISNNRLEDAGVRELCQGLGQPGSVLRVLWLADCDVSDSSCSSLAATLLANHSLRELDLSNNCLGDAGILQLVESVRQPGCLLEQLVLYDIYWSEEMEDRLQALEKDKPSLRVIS
Procedure: Table printed on a drawing sheet, FIGURE 2
Head of the field: Kd^c | nM
Footnotes: ^aValues of Tm (± 2 °C) were determined in PBS by UV spectroscopy. The Tm values for G88R RNase and ONC in PBS are from Leland et al. (1998, Proc. Natl. Acad. Sci. 98:10407-10412). / ^bValues of kcat/KM (± SE) are for the catalysis of 6-FAM~dArU(dA)2~6-TAMRA cleavage at room temperature in 0.10 M MES-NaOH buffer (pH 6.0) containing NaCl (0.10 M) except for the kcat/KM (± SE) of ONC . The kcat/KM value for ONC is for the catalysis of 6-FAM~dArUdGdA~6-TAMRA cleavage at room temperature in 0.020 M MES-NaOH buffer (pH 6.0) containing NaCl (0.010 M). / ^cValues of Kd (± SE) are for the complex with human RI at room temperature. The Kd value for RNase A is from Lee et al. (1989, Biochem. 28:225-230). The Kd value for G88R RNase A is from Lavis et al. (2007, Anal. Biochem. 79:6775-6782). The Kd value for ONC is an estimate from Wu et al. (1993, J. Biol. Chem. 268:10686-10693). / ^dValues of IC50 (± SE) are for incorporation of [methyl-^3H]thymidine into the DNA of K-562 cells. […]
First copying reader's note: The table body is printed very coarsely, so many digits are uncertain; the mark ^h in the (kcat/KM)cyto column has no footnote on the sheet, and the IC50 footnote is lettered d.
Where the first naming reader finds the target: footnote: Values of Kd (± SE) are for the complex with human RI at room temperature.

hRI = biological target: T2, hRI (Homo sapiens, UniProt P13489); conditions: value used as basis of the competition assay; Rutkoski et al., 2005; cited from earlier work
T2 sequence (P13489 1-461): T1 sequence (P13489 whole entry, looked up)

## N.N.[Cl][Pt][Cl] [cisplatin, reference compound]
[1]; 6 mg/kg weekly, compared with 60 kDa mPEG2 G89C RNase 1
  efficacy in reducing tumor volume: similar

## CC(=O)O[C@@]12CO[C@@H]1C[C@H](O)[C@@]1(C)C(=O)[C@H](O)C3=C(C)[C@@H](OC(=O)[C@H](O)[C@@H](NC(=O)OC(C)(C)C)c4ccccc4)C[C@@](O)([C@@H](OC(=O)c4ccccc4)[C@H]21)C3(C)C [docetaxel, reference compound]
[2]; 8 mg/kg weekly, compared to a control, FIG. 5
  tumor volume: decrease tumor volumes to similar levels

B1: 60 kDa mPEG2-G89C RNase 1: G89C RNase 1 modified with 60 kDa-mPEG2 maleimide (branched) (conjugate, UniProt P07998 29-156, looked up, variant G89C)
Ribonuclease pancreatic: KESRAKKFQRQHMDSDSSPSSSSTYCNQMMRRRNMTQGRCKPVNTFVHEPLVDVQNVCFQEKVTCKNGQGNCYKSNSSMHITDCRLTNCSRYPNCAYRTSPKERHIIVACEGSPYVPVHFDASVEDST
modifications: 60 kDa branched mPEG2 maleimide
[1]; 75 mg/kg weekly, intraperitoneal, versus control
  tumor volume: decreases tumor volume

B2: 20 kDa mPEG2-G88C RNase A: G88C RNase A modified with 20 kDa-mPEG2 maleimide (branched) (conjugate, UniProt P61823 27-150, looked up, variant G88C)
Ribonuclease pancreatic: KETAAAKFERQHMDSSTSAASSSNYCNQMMKSRNLTKDRCKPVNTFVHESLADVQAVCSQKNVACKNGQTNCYQSYSTMSITDCRETCSSKYPNCAYKTTQANKHIIVACEGNPYVPVHFDASV
modifications: 20 kDa branched mPEG2 maleimide
[2]; 75 mg/kg, 1 time per week, intraperitoneal, FIG. 5
  tumor volume: reduce tumor volumes
Human RI
  Kd: 37 ± 2.4 nM

B3: 2 kDa mPEG-G88C RNase A: G88C RNase A modified with 2 kDa-mPEG maleimide (conjugate, UniProt P61823 27-150, looked up, variant G88C)
Ribonuclease pancreatic: B2 Ribonuclease pancreatic
modifications: 2 kDa mPEG maleimide
notes: G88C RNase A modified with 2 kDa-mPEG maleimide
[2]; 15 mg/kg twice weekly, intraperitoneal, FIG. 4B
  toxicity of the treatment as reflected by average body weight: lack of toxicity
[2]; 15 mg/kg, 2 times per week, intraperitoneal, FIG. 4
  tumor volume: reduction in tumor volume over time
[2]; 15 mg/kg, 2 times per week, intraperitoneal, FIG. 4, listed as 2 kDa mPEG G88C RNase A
  tumor volume: reduce tumor volumes

B4: fluorophore-labeled G88R variant of RNase A: fluorophore-labeled G88R variant of RNase A used as probe in the ribonuclease-inhibitor binding assay (conjugate, UniProt P61823 27-150, looked up, variant G88R)
Ribonuclease pancreatic: B2 Ribonuclease pancreatic with C88R
modifications: fluorophore label
hRI
  Kd: 1.4 nM

From patent publication US8697062B2, “Compositions and methods for ribonuclease-based therapeutics” (Quintessence Biosciences, Inc., priority 2007, dated 2014)
